Source: article PMC11339910 (Journal of molecular biology, 2024)

Target: IL-13 (UniProt P35225)
Test: SPR

IL-13, sequence (P35225 35-143): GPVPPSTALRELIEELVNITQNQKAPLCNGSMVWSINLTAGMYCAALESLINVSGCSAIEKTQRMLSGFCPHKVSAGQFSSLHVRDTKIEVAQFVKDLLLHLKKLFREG

B1: Fab region of tralokinumab (Fab, V domains shown)
VH: QVQLVQSGAEVKKPGASVKVSCKASGYTFTNYGLSWVRQAPGQGLEWMGWISANNGDTNYGQEFQGRVTMTTDTSTSTAYMELRSLRSDDTAVYYCARDSSSSWARWFFDLWGRGTLVTVSS
VL: SYVLTQPPSVSVAPGKTARITCGGNIIGSKLVHWYQQKPGQAPVLVIYDDGDRPSGIPERFSGSNSGNTATLTISRVEAGDEADYYCQVWDTGSDPVVFGGGTKLTVL
B1: binds.
